Read-outs that look alike come from different tables or passages of the source.
What was measured:
[1] = molecular target: recombinant DEN-2 virus E-glycoprotein antigen (wild type, from pCB8D2-2J-2-9-1) (dengue virus serotype 2 (carboxy-terminal 20% from JE virus))
[2] = molecular target: recombinant DEN-2 virus E-glycoprotein antigen (wild type, from pCB8D2-2J-2-9-1) (dengue virus serotype 2 (carboxy-terminal 20% from JE virus)); assay: IFA, wild-type plasmid transfected cells

Substance | mAb reactivity (end point) [1] | mAb reactivity (end point) [2]
mAb 4E5 (antibody) | > 2.9 | 2.6
mAb 3H5 (antibody) | > 6 | > 4.4
mAb 4G2 (antibody) | > 6 | 3.8

— patent US20080248064A1
